± gives the standard error. This sample holds only a part of the variants without activity.
B1: glmS ribozyme (parent)
chain: AUAAAAGCGCCAGAACUACAGAAAUGUAGUUGACGAGGAGGAGGUUUAUCGAAUUUUCGGCGGAUGCCUCCAAA

Assays:
Conditions in all cases: with glucosamine-6-phosphate
glucosamine-6-phosphate [1] = variants of: B1; assay: self-cleavage kobs at 40 uM GlcN6P; higher = faster cleavage; RNA array
Summary of the method: (§1)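 E. coli RNA polymerase transcribed barcoded ribozyme variants in situ on sequenced MiSeq chips, which were tracked via a hybridised Cy3 probe at 37 °C. Tiles were imaged over ~14 h after glucosamine-6-phosphate (40 μM to 10 mM) in HEPES/KCl/Mg(OAc)2 buffer was flowed in. Normalised per-tile medians were fit to one- or two-exponential decays for kobs, and kcat and KM came from weighted Michaelis–Menten fits.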

glucosamine-6-phosphate [2] = variants of: B1; assay: self-cleavage kobs at 160 uM GlcN6P; higher = faster cleavage; RNA array
Summary of the method: as §1

glucosamine-6-phosphate [3] = variants of: B1; assay: self-cleavage kobs at 640 uM GlcN6P; higher = faster cleavage; RNA array
Summary of the method: as §1

glucosamine-6-phosphate [4] = variants of: B1; assay: self-cleavage kobs at 2500 uM GlcN6P; higher = faster cleavage; RNA array
Summary of the method: as §1

glucosamine-6-phosphate [5] = variants of: B1; assay: self-cleavage kobs at 10000 uM GlcN6P; higher = faster cleavage; RNA array
Summary of the method: as §1

Variant	self-cleavage kobs at 40 uM GlcN6P (glucosamine-6-phosphate [1]) [s⁻¹]	self-cleavage kobs at 160 uM GlcN6P (glucosamine-6-phosphate [2]) [s⁻¹]	self-cleavage kobs at 640 uM GlcN6P (glucosamine-6-phosphate [3]) [s⁻¹]	self-cleavage kobs at 2500 uM GlcN6P (glucosamine-6-phosphate [4]) [s⁻¹]	self-cleavage kobs at 10000 uM GlcN6P (glucosamine-6-phosphate [5]) [s⁻¹]
AUAAAAGCGCCACAACUACAGAAAUGUAGUUGACGAGGAGGAGGUUUAGCGAAUUUUCGUCGGAUGCCUGCAAA [G13C U49G G60U C70G]	< 1e-05	–	–	–	–
AUAAAAGCGCCAGAGCUACAGAAAUGUAGUUGACGAGGAGGACGUUUAUCGAAUUUUCGGCGGAUGCCUCCAAA [A15G G43C]	< 1e-05	< 1e-05	< 1e-05	< 1e-05	< 1e-05
AUAAAAGCGGCAGAACUACAGAAAUGUAGUUGAUGAGCAGGAGGUUUAUCGAAUUUUCGGCGGCUGUCUCCAAA [C10G C34U G38C A64C C67U]	< 1e-05	–	–	–	< 1e-05
AUAAAAGCGCCAGAGCUACAGAAAUGUAGUUGACGAGGAGGAGGUGUUUCGAAUUUUCAGCGGAUGCCUCCAAA [A15G U46G A48U G59A]	< 1e-05	< 1e-05	–	< 1e-05	< 1e-05
AUAAAAGCGCCAGAACUACAGAAAUGUAGUUGACCAGGAGUAGGUUUAUCGAAUUUUCGGCGUAUGCCUCCAAA [G35C G41U G63U]	< 1e-05	–	–	–	–
AUAAAAGCGCCAGAACUACAGAAAUGUAGUUGACGACGAGGAGGUUUAUCGAAUUUACGGCGGAUGCCUCCAAA [G37C U57A]	< 1e-05	–	< 1e-05	–	< 1e-05
AUAAACGCGCCAGAACUACAGAAAUGUAGUUGACGAGGAGGAGGUUUAUCGAAUUUUCGGUGGAUGCCUCCAAA [A6C C61U]	< 1e-05	< 1e-05	–	–	< 1e-05
AUAAACGCGCCAGAACUACAGAAAUGUAGUUGGCGAGGAGGAGGUUUAUCGAAUUUUCGGCGGAUGCCUCCAAA [A6C A33G]	< 1e-05	–	< 1e-05	–	< 1e-05
AUAAAAGCGCCAGAACUACAGAAAUGUACUUGACGAGGAGGAGGUUUAUGGAAUUUUCGGAGGACGCCUCCAAA [G29C C50G C61A U65C]	7.48e-05 ± 2.1e-05	–	–	–	–
AUAAAAGCGCGAGAACUACAGAAAUGUAGUUGACGAGGAGGAGGUUUAUCGAAUUUUAGGCGGGUGCCUCCAAA [C11G C58A A64G]	< 1e-05	–	–	–	–
AUAAAAGCGCCAAAACUACAGAAAUGUAGUUGACGGGGAGGAGGUUUAUCGAAUUUUCGGCGGAUGCCUCCAAA [G13A A36G]	< 1e-05	< 1e-05	< 1e-05	< 1e-05	< 1e-05
AUAAAAGCGCCAGAACUACAGAAAUGUAGUUGACGAGGAGGCGGUUUAUCGAAUUUUCCGCGGAUGGCUCCAAA [A42C G59C C67G]	< 1e-05	–	–	< 1e-05	< 1e-05
AUAAAAGCGCCAGAACUACAGAAAUGUAGUUGACGAGGAUGAGGUUUAUCAAAAUUUCGGCGGUUGCCUCCAAA [G40U G51A U54A A64U]	< 1e-05	–	–	–	–
AUAAAGGCCCCAGAACUACAGAAAUGUAGUUGACGAGGAGGAGGUUUAUCGAAUUUUCGGCGGAUGCCUCCAAA [A6G G9C]	< 1e-05	< 1e-05	–	–	< 1e-05
AUAAAAGCGCACGAACUACAGAAAUGUAGUUUACGAGGAGGAGGUUUAUGGAAUUUUCGGCGGAUGCCUCCAAA [C11A A12C G32U C50G]	0.000123 ± 3.9e-05	–	–	–	0.000269 ± 6.1e-05
